Measured values: the supplement of paper PMC10567573

Experiment: protein stability index of a GFP-peptide fusion (GPS, HEK-293T) (PSI 1-6); higher = more stable
[1] = parent: NP_015628.1, c terminus: native
[2] = parent: NP_002788.1, c terminus: native
[3] = parent: NP_009172.2, c terminus: native
[4] = parent: NP_116010.1, c terminus: native
[5] = parent: NP_006221.1, c terminus: native

Protein: EQRNSRWNTVLRAVKAKTHHLEPA [TRPA1 addA]
- protein stability index [1]: 4.26

Protein: DGWIRVSSDNVADLHEKYSGSTPT [PSMB5 addT]
- protein stability index [2]: 3.53

Protein: LKGAFPARLKKVLIVGAPIWFRVP
- protein stability index (parent: IOH82149_30, c terminus: a fixed tail appended): 2.96

Protein: HISSCKLGPQVSLDPMKNVTCENG
- protein stability index (parent: IOH81790_46, c terminus: a fixed tail appended): 3.95

Protein: FSEIRETSAKVNWMPPPSRADSFK [TNXB WT]
- protein stability index (parent: IOH81617_33, c terminus: a fixed tail appended): 3.45

Protein: IDFLRVVRNQQSLAVSNMGARSKG
- protein stability index (parent: IOH82149_81, c terminus: a fixed tail appended): 2.4

Protein: FICQATGDPRPKIVWNKKGKKVSN
- protein stability index (parent: IOH82190_8, c terminus: a fixed tail appended): 2.13

Protein: LPALFTDLYSQEITAEEAREALPA [SNF8 addA]
- protein stability index [3]: 3.42

Protein: PVVSMDLDPQPITDEEEGLIWVVG
- protein stability index (parent: IOH82190_140, c terminus: a fixed tail appended): 3.88

Protein: HSLRAVSTDPPHHDHHDEFCLMPA [BEX2 addA]
- protein stability index [4]: 3.18

Protein: NKWTVQYNVSPLSWNVAVKFLMAR
- protein stability index (parent: IOH82149_6, c terminus: a fixed tail appended): 2.09

Protein: FSPDGPSRFRKAYKPEQPLVRLRG
- protein stability index (parent: IOH81790_52, c terminus: a fixed tail appended): 1.81

Protein: TQHLPRECLPENLGGYVKIDLATW
- protein stability index (parent: IOH82149_38, c terminus: a fixed tail appended): 1.88

Protein: FSLKTFKRKSEVERAVKRMRHLST
- protein stability index (parent: IOH81883_19, c terminus: a fixed tail appended): 2.06

Protein: VSVNAQTLDGRTPLHLAAQRGHYR
- protein stability index (parent: IOH82264_100, c terminus: a fixed tail appended): 3.37

Protein: GSLPWQGLKADTLKERYQKIGDTK [CSNK1G1 WT]
- protein stability index (parent: IOH82133_42, c terminus: a fixed tail appended): 4.1

Protein: MVHVARLLLLLLTFFLRTDAETPP
- protein stability index (parent: IOH82190_1, c terminus: a fixed tail appended): 2.92

Protein: LPALFTDLYSQEITAEEAREALP [SNF8 WT]
- protein stability index [3]: 2.74

Protein: DCAGSPQKPLCASDGRTFLSRCEF
- protein stability index (parent: IOH81799_8, c terminus: a fixed tail appended): 2.54

Protein: DGWIRVSSDNVADLHEKYSGSTPA [PSMB5 addA]
- protein stability index [2]: 2.51

Protein: SYVRSRKRLREEEAARLFKQIVSA
- protein stability index (parent: IOH82269_29, c terminus: a fixed tail appended): 2.13

Protein: ELDELLKEISRKRRSIRYGREVEL
- protein stability index (parent: IOH82190_126, c terminus: a fixed tail appended): 2.18

Protein: RLLRFSSQIHNNGQSDFRPKNGRH
- protein stability index (parent: IOH81790_100, c terminus: a fixed tail appended): 2.72

Protein: TDDSYSCHCLKGFTLNPDKKTCRR
- protein stability index (parent: IOH81883_64, c terminus: a fixed tail appended): 2.25

Protein: ILFSLPPALDWDSVHVPGPHAMTI
- protein stability index (parent: IOH82149_45, c terminus: a fixed tail appended): 2.54

Protein: VMTLPSDLRKHRRKLLSPVSREEN
- protein stability index (parent: IOH82170_31, c terminus: a fixed tail appended): 3.53

Protein: HVDPEEPWSPCSARFITDFLDNGY
- protein stability index (parent: IOH81847_67, c terminus: a fixed tail appended): 1.84

Protein: DHSGFISLDEFRQTWKLFSSHMNI
- protein stability index (parent: IOH82202_112, c terminus: a fixed tail appended): 1.7

Protein: FIPSSHNDRDFLTRIFTEDRFAQD
- protein stability index (parent: IOH82202_13, c terminus: a fixed tail appended): 2.05

Protein: FIVDILQFLDIGPDVTRVGLLQYG
- protein stability index (parent: IOH81883_14, c terminus: a fixed tail appended): 2.92

Protein: YVEVKEGKTWKQICDKHWTAKNSR
- protein stability index (parent: IOH81790_35, c terminus: a fixed tail appended): 2.24

Protein: CQPISFSGFGAEDDDLGGLGLGPA [POLD2 addA]
- protein stability index [5]: 2.54

Protein: EQRNSRWNTVLRAVKAKTHHLEP [TRPA1 WT]
- protein stability index [1]: 3.03

Protein: FTETNNHWPQGPTGPPGPPGPMGP [EMID1 WT]
- protein stability index (parent: IOH81855_48, c terminus: a fixed tail appended): 2.31

Protein: EQRNSRWNTVLRAVKAKTHHLEPT [TRPA1 addT]
- protein stability index [1]: 4.19

Protein: CQPISFSGFGAEDDDLGGLGLGPT [POLD2 addT]
- protein stability index [5]: 2.6

Protein: TLDGYGIHPKSIDLDNYFTARRLL [NFE2L1 WT]
- protein stability index (parent: IOH81649_11, c terminus: a fixed tail appended): 1.93

Protein: LPALFTDLYSQEITAEEAREALPT [SNF8 addT]
- protein stability index [3]: 3.79

Protein: DGWIRVSSDNVADLHEKYSGSTP [PSMB5 WT]
- protein stability index [2]: 2.42

Protein: VIDLFDEQGLSALHLAAQGRHAQT
- protein stability index (parent: IOH82264_122, c terminus: a fixed tail appended): 2.72

Protein: PGVHRRYSALREESAKDWETSPLP
- protein stability index (parent: IOH82170_4, c terminus: a fixed tail appended): 4.19

Protein: YAGNLHESGVHGALLALDENFDHN
- protein stability index (parent: IOH82170_95, c terminus: a fixed tail appended): 2.51

Protein: HSLRAVSTDPPHHDHHDEFCLMP [BEX2 WT]
- protein stability index [4]: 2.48

Protein: RERMELLEEAKKMEMAKFRYILPV
- protein stability index (parent: IOH82264_11, c terminus: a fixed tail appended): 2.38

Protein: VNVPGSFVCQCYSGYALAEDGKRC
- protein stability index (parent: IOH81883_50, c terminus: a fixed tail appended): 1.99

Protein: CQPISFSGFGAEDDDLGGLGLGP [POLD2 WT]
- protein stability index [5]: 2.27

Protein: ITWFKDFLPVDTSNNNGRIKQLRS
- protein stability index (parent: IOH82190_27, c terminus: a fixed tail appended): 1.83

Protein: AVKKFVESEDDPVVKKIALREIRM [CDKL4 WT]
- protein stability index (parent: IOH82195_6, c terminus: a fixed tail appended): 2.87

Protein: PALETQPQGDEEDIASRYPTLWTE
- protein stability index (parent: IOH81799_32, c terminus: a fixed tail appended): 4.26

Protein: LTKLREMGREKCHQYWPAERSARY
- protein stability index (parent: IOH82190_223, c terminus: a fixed tail appended): 2.36

Protein: SFRKFRYGYNNVVTIPAGATHILV
- protein stability index (parent: IOH81847_116, c terminus: a fixed tail appended): 2.6

Protein: QKPLCASDGRTFLSRCEFQRAKCK
- protein stability index (parent: IOH81799_9, c terminus: a fixed tail appended): 2.71

Protein: AAWQGHLPIVKLLAKQPGVSVNAQ
- protein stability index (parent: IOH82264_97, c terminus: a fixed tail appended): 2.35

Protein: EIGTSDQIVPEYQEDSDISSFFC
- protein stability index (parent: IOH82269_63, c terminus: native): 2.87

Protein: AFKAAALIQRWYRRYVARLEMRRR
- protein stability index (parent: IOH82202_4, c terminus: a fixed tail appended): 3.14
